Source: publication PMC8368218 (Cell Discovery, 2021)
Values joined by “and” are separate entries in the source; they are usually repeats but may differ in a detail not shown here. Equal values may be shown once.

Tests used:
G3BP1^NTF2 [1] = molecular target: G3BP1^NTF2 (UniProt Q13283); assay: ITC
G3BP1^NTF2 [2] = molecular target: T1, G3BP1^NTF2 (UniProt Q13283 11-133); assay: ITC; conditions: both partners purified
T1 construct: also called NTF2 domain of G3BP1
T1 sequence (Q13283 11-133): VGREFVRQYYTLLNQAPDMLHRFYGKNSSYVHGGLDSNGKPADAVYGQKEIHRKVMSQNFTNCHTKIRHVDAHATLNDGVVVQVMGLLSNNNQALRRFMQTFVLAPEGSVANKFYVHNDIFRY

Sequence of G3BP1^NTF2 (UniProt Q13283) (Q13283 11-133): as above

## SARS-CoV-2 N^11–24 F/A (from UniProt P0DTC9 11-24) (domain or fragment)
G3BP1^NTF2 [1]
  fold reduction of affinity against N^11–24 wild type: 7 fold and 6 fold

## SARS-CoV-2 N^11–24 I/A (from UniProt P0DTC9 11-24) (domain or fragment)
G3BP1^NTF2 [1]
  fold reduction of affinity against N^11–24 wild type: 6 fold and 7 fold

B1: SARS-CoV-2 N^11–24 (domain or fragment)
chain: NAPRITFGGPSDST
notes: also called fragment from the N-IDR of N protein
G3BP1^NTF2 [2]
  Kd: ~10 µM
